# Like-named read-outs stand apart in the source and are kept apart here.
# T1: N-(3[2-furyl]acryloyl)-Leu-Gly-Pro-Ala
# T1 chain: LGPA
# B1: recombinant 62 kDa collagenase (Grimontia hollisae-derived recombinant collagenase) (protein)
# chain: AVEQCDLSQFQTTSSNQLMAAIRQQGASCVNALFSADTGVQEAAFSSNHMYNVAQYTRTLAQQYAGGGSDELEALYLYLRAGYYAEFYNSNITFLSWVTPAVKGAVDAFVQNAHFYDNGDAHGKVLNEVIITMDSAGLQHAYLDVVTQWLTRWNAQYAEHWYMRNAVNGVFTLLFGGQWNNQYTSLIGEQTALVTALQAFALDRTKVNSPTEFMAANAARELGRLARYTDATIAPKVTEGLTAIFGQYPSYGDGDAIWLGAADTASYYADCSQFNICGFEDALRDAALNQTFICSDTIKIRSQDMSQAQHLAACDKMAYEESFFHTTLETGNQPVADDHNTQLQVNIFNSDTDYGKYAGPIFGIDTNNGGMYLEGNPANVGNIPNFIAYEASYANPDHFVWNLEHEYVHYLDGRFNMYGDFGTPTELVVWWSEGVAEYVSRVNDNPQAIATIQDGSTYTLAQVFDTTYDGFDVDRIYRWGYLAVRFMFERHPDEVQRMLSATRQGRWAEYKAIISGWANQYQSEFAQWTEALAKGDSGAGNGEGTGSGNEGGGESGGNT
# B2: 74 kDa collagenase (Grimontia hollisae-derived collagenase lacking the prepro region) (protein)
# chain: AVEQCDLSQFQTTSSNQLMAAIRQQGASCVNALFSADTGVQEAAFSSNHMYNVAQYTRTLAQQYAGGGSDELEALYLYLRAGYYAEFYNSNITFLSWVTPAVKGAVDAFVQNAHFYDNGDAHGKVLNEVIITMDSAGLQHAYLDVVTQWLTRWNAQYAEHWYMRNAVNGVFTLLFGGQWNNQYTSLIGEQTALVTALQAFALDRTKVNSPTEFMAANAARELGRLARYTDATIAPKVTEGLTAIFGQYPSYGDGDAIWLGAADTASYYADCSQFNICGFEDALRDAALNQTFICSDTIKIRSQDMSQAQHLAACDKMAYEESFFHTTLETGNQPVADDHNTQLQVNIFNSDTDYGKYAGPIFGIDTNNGGMYLEGNPANVGNIPNFIAYEASYANPDHFVWNLEHEYVHYLDGRFNMYGDFGTPTELVVWWSEGVAEYVSRVNDNPQAIATIQDGSTYTLAQVFDTTYDGFDVDRIYRWGYLAVRFMFERHPDEVQRMLSATRQGRWAEYKAIISGWANQYQSEFAQWTEALAKGDSGAGNGEGTGSGNEGGGESGGNTGLPENCAVLPKISDGRLALDEAACLADTASASDVLWFSIPAVSEYQTIAITAGNGTGDLTLEYSNLNWPDGTNVQASSANMGNSECIILEHQANYWGYLKVSGSFENAALLVEAGSNQCRQ
# B3: recombinant 60 kDa collagenase (Grimontia hollisae-derived recombinant collagenase) (protein)
# chain: AVEQCDLSQFQTTSSNQLMAAIRQQGASCVNALFSADTGVQEAAFSSNHMYNVAQYTRTLAQQYAGGGSDELEALYLYLRAGYYAEFYNSNITFLSWVTPAVKGAVDAFVQNAHFYDNGDAHGKVLNEVIITMDSAGLQHAYLDVVTQWLTRWNAQYAEHWYMRNAVNGVFTLLFGGQWNNQYTSLIGEQTALVTALQAFALDRTKVNSPTEFMAANAARELGRLARYTDATIAPKVTEGLTAIFGQYPSYGDGDAIWLGAADTASYYADCSQFNICGFEDALRDAALNQTFICSDTIKIRSQDMSQAQHLAACDKMAYEESFFHTTLETGNQPVADDHNTQLQVNIFNSDTDYGKYAGPIFGIDTNNGGMYLEGNPANVGNIPNFIAYEASYANPDHFVWNLEHEYVHYLDGRFNMYGDFGTPTELVVWWSEGVAEYVSRVNDNPQAIATIQDGSTYTLAQVFDTTYDGFDVDRIYRWGYLAVRFMFERHPDEVQRMLSATRQGRWAEYKAIISGWANQYQSEFAQWTEALAKGDS
# How the values were obtained:
# [1] = test system: N-(3[2-furyl]acryloyl)-Leu-Gly-Pro-Ala
# [2] = test system: fluorescently labeled type I collagen (FITC-collagen)
# [3] = test system: type I collagen
# [4] = test system: type II collagen
# [5] = test system: type III collagen
# [6] = test system: type IV collagen
# [7] = test system: type V collagen
# [8] = test system: type VI collagen
# [9] = target: T1, N-(3[2-furyl]acryloyl)-Leu-Gly-Pro-Ala
# [10] = target: fluorescently labeled type I collagen (FITC-collagen); remark: listed apart in the source
# [11] = target: type I collagen; remark: listed apart in the source
# [12] = target: type II collagen; remark: listed apart in the source
# [13] = target: type III collagen; remark: listed apart in the source
# [14] = target: type IV collagen; remark: listed apart in the source
# [15] = target: type V collagen; remark: listed apart in the source
# [16] = target: type VI collagen; remark: listed apart in the source
molecule,measurement,setting,value
"collagenase derived from Clostridium histolyticum (manufactured by Roche Applied Science, trade name ""Liberase C/T"")",Maximum rate,[1],0.2 mM/s
same,Michaelis constant,[1],2.03 mM
same,Molecular activity,[1],22.2 s⁻¹
same,Specific activity,[1],2.6 U/mg
same,Maximum rate,[2],0.00016 mM/s
same,Michaelis constant,[2],0.0019 mM
same,Molecular activity,[2],18.7 s⁻¹
same,Specific activity,[2],1770 U/mg
same,disappearance of collagen bands on electrophoresis after incubation,[3],the recombinant 62 kDa collagenase seems to more rapidly digest the type I collagen than liberase
same,disappearance of collagen bands on electrophoresis after incubation,[4],"This tendency was also similarly observed for the type II, type III, type IV, type V, and type VI collagens"
same,disappearance of collagen bands on electrophoresis after incubation,[5],"This tendency was also similarly observed for the type II, type III, type IV, type V, and type VI collagens"
same,disappearance of collagen bands on electrophoresis after incubation,[6],the bands do not disappear when the liberase is used
same,disappearance of collagen bands on electrophoresis after incubation,[7],the bands do not disappear when the liberase is used
same,disappearance of collagen bands on electrophoresis after incubation,[8],the band does not disappear when the liberase is used
B1,Maximum rate,[9],0.6 mM/s
same,Michaelis constant,[9],2.28 mM
same,Molecular activity,[9],37.5 s⁻¹
same,Specific activity,[9],9.39 U/mg
same,Maximum rate,[10],0.00041 mM/s
same,Michaelis constant,[10],0.0011 mM
same,Molecular activity,[10],25.1 s⁻¹
same,Specific activity,[10],5490 U/mg
same,specific activity (from immediately after the purification to 24 hours),[10],"12,000 (U/mg)"
same,disappearance of collagen bands on electrophoresis after incubation,[11],the recombinant 62 kDa collagenase seems to more rapidly digest the type I collagen than liberase
same,disappearance of collagen bands on electrophoresis after incubation,[12],"This tendency was also similarly observed for the type II, type III, type IV, type V, and type VI collagens"
same,disappearance of collagen bands on electrophoresis after incubation,[13],"This tendency was also similarly observed for the type II, type III, type IV, type V, and type VI collagens"
same,disappearance of collagen bands on electrophoresis after incubation,[14],the band become weaker when the recombinant 62 kDa collagenase is used to react for three hours or five hours
same,disappearance of collagen bands on electrophoresis after incubation,[15],the band become weaker when the recombinant 62 kDa collagenase is used to react for three hours or five hours
same,disappearance of collagen bands on electrophoresis after incubation,[16],the band become weaker when the recombinant 62 kDa collagenase is used to react for 72 hours
B2,specific activity (24 hours after the purification),[10],"11,500 (U/mg)"
same,specific activity (immediately after the purification),[10],"18,000 (U/mg)"
B3,specific activity (from immediately after the purification to 24 hours),[10],"12,000 (U/mg)"
